According to article PMC11031989, “Structural determinants for activation of the Tau kinase CDK5 by the serotonin receptor 5-HT7R” (Cell Communication and Signaling : CCS, 2024):
Residue numbers refer to the chain shown, from its start. In names and notes the source's numbering stands.

B1: HA-tagged 5-HT7R (serotonin receptor 7), wild type (receptor, UniProt P32304 1-448, looked up)
chain: MMDVNSSGRPDLYGHLRSLILPEVGRRLQDLSPDGGAHSVVSSWMPHLLSGFPEVTASPAPTWDAPPDNVSGCGEQINYGRVEKVVIGSILTLITLLTIAGNCLVVISVCFVKKLRQPSNYLIVSLALADLSVAVAVMPFVSVTDLIGGKWIFGHFFCNVFIAMDVMCCTASIMTLCVISIDRYLGITRPLTYPVRQNGKCMAKMILSVWLLSASITLPPLFGWAQNVNDDKVCLISQDFGYTIYSTAVAFYIPMSVMLFMYYQIYKAARKSAAKHKFSGFPRVQPESVISLNGVVKLQKEVEECANLSRLLKHERKNISIFKREQKAATTLGIIVGAFTVCWLPFFLLSTARPFICGTSCSCIPLWVERTCLWLGYANSLINPFIYAFFNRDLRTTYRSLLQCQYRNINRKLSAAGMHEALKLAERPERSEFVLQNCDHCGKKGHDT
notes: Serotonin receptor 7 (5-HT7R), wild type; pcDNA3.1(+) vector; also called 5-HT7R WT; WT; source: N1E-115 cells, transfected, in lysate; not shown: HA, N-terminal, kept
B2: HA-tagged 5-HT7R F278A;F281A (receptor, UniProt P32304 1-448, looked up)
chain: B1 chain with F278A, F281A
notes: Serotonin receptor 7 (5-HT7R) with F278A and F281A in intracellular loop 3; Primers are in Additional file 1; also called F278;F281A; source: N1E-115 cells, transfected, in lysate; not shown: HA, N-terminal, kept
B3: HA-tagged 5-HT7R F281A (receptor, UniProt P32304 1-448, looked up)
chain: B1 chain with F281A
notes: Serotonin receptor 7 (5-HT7R) with F281A in intracellular loop 3; Primers are in Additional file 1; source: N1E-115 cells, transfected, in lysate; not shown: HA, N-terminal, kept

Experiments:
[1] = target: T1, mCherry-tagged CDK5 (cyclin-dependent kinase 5) (UniProt Q00535 1-292); test: co-IP; N1E-115 cells co-transfected with mCherry-tagged CDK5 and HA-tagged 5-HT7R constructs; IP with anti-mCherry antibody, Western blot with anti-HA antibody; ratio of co-precipitated receptor normalized to the WT sample; also done after knock-down of Gαs by shRNA (Additional file 5); details: partners not purified
T1 construct: Cyclin-dependent kinase 5 (CDK5); Printed both as CDK5-mCherry and as mCherry-CDK5; also called CDK5-mCherry; mCherry-CDK5; source: N1E-115 cells, transfected, in lysate

[2] = target: T1, mCherry-tagged CDK5 (cyclin-dependent …); test: cell-based or functional assay

| Binder | co-precipitated receptor, normalized to WT [1] [%] | phosphorylation of endogenous CDK5 at S159 (read-out for CDK5 activation) in N1E-115 cells expressing the HA-tagged receptor, % of WT [2] [%] |
| --- | --- | --- |
| B1 | 100 | – |
| B2 | 64.5 | 49.2 |
| B3 | 73.8 | 45.7 |
